Target: T1, MLH1 p.Tyr750X (human, UniProt P40692 1-749)
T1 sequence (looked up): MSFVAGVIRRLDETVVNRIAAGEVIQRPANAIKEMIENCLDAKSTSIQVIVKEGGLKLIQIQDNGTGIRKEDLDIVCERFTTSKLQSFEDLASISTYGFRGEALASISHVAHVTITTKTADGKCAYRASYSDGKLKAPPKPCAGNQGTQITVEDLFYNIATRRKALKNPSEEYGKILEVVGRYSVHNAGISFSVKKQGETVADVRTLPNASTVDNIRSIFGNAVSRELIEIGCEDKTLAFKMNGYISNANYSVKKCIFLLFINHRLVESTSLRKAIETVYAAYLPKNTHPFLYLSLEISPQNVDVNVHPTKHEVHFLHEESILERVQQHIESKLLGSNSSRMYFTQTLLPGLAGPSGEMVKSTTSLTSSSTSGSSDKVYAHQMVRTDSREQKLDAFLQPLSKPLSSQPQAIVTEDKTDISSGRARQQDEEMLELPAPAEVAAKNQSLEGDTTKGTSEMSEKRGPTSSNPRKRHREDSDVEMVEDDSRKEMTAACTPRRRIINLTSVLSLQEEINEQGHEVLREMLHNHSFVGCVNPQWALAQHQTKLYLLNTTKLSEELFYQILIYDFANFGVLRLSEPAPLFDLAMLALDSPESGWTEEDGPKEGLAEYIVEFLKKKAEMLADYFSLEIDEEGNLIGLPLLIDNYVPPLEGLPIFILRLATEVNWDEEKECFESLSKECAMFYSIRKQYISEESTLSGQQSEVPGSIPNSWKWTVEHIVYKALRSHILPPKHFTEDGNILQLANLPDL
Experiment: co-IP

co-precipitated PMS2 in relation to wild-type: 23 % of wild-type
B1: PMS2 (natural protein, UniProt P54278 1-862, looked up)
chain: MERAESSSTEPAKAIKPIDRKSVHQICSGQVVLSLSTAVKELVENSLDAGATNIDLKLKDYGVDLIEVSDNGCGVEEENFEGLTLKHHTSKIQEFADLTQVETFGFRGEALSSLCALSDVTISTCHASAKVGTRLMFDHNGKIIQKTPYPRPRGTTVSVQQLFSTLPVRHKEFQRNIKKEYAKMVQVLHAYCIISAGIRVSCTNQLGQGKRQPVVCTGGSPSIKENIGSVFGQKQLQSLIPFVQLPPSDSVCEEYGLSCSDALHNLFYISGFISQCTHGVGRSSTDRQFFFINRRPCDPAKVCRLVNEVYHMYNRHQYPFVVLNISVDSECVDINVTPDKRQILLQEEKLLLAVLKTSLIGMFDSDVNKLNVSQQPLLDVEGNLIKMHAADLEKPMVEKQDQSPSLRTGEEKKDVSISRLREAFSLRHTTENKPHSPKTPEPRRSPLGQKRGMLSSSTSGAISDKGVLRPQKEAVSSSHGPSDPTDRAEVEKDSGHGSTSVDSEGFSIPDTGSHCSSEYAASSPGDRGSQEHVDSQEKAPKTDDSFSDVDCHSNQEDTGCKFRVLPQPTNLATPNTKRFKKEEILSSSDICQKLVNTQDMSASQVDVAVKINKKVVPLDFSMSSLAKRIKQLHHEAQQSEGEQNYRKFRAKICPGENQAAEDELRKEISKTMFAEMEIIGQFNLGFIITKLNEDIFIVDQHATDEKYNFEMLQQHTVLQGQRLIAPQTLNLTAVNEAVLIENLEIFRKNGFDFVIDENAPVTERAKLISLPTSKNWTFGPQDVDELIFMLSDSPGVMCRPSRVKQMFASRACRKSVMIGTALNTSEMKKLITHMGEMDHPWNCPHGRPTMRHIANLGVISQN
